# Experiment: soluble on expression in E. coli; label from the status in PepcDB or PDB records
row,Sequence,soluble on expression in E. coli
1,MPSKKKKIVVIGRSNLQNLYIHTILLKKLPAEIYLIDEQAKTSVQDFEYASYYHSSATVNTGTFNECRSADLVLFFQEEMSNESFSNEDNLALIKEKVKKMMATGFQGIVLVATAESNIVASLIKHFSGLPANQIITPGTMLATSYFQVEIAKLFKISPKNVHGYIIGESTQDVIPVWSRAFLGGKPILSYLAEEQKRITSDDLQNLTNMITKIPDFPVETKDGCSFRFSTVTVLAELTEVILRDEARVLTVGVEVKEAYGLERPVFVSVPAVVGAEGVRELLELNLSDDEQKELKRITTKTTEKLGLLHNKGGIS,not soluble
2,MPSTLQGTFHTYRIIRRLGQGAFGEVSLAGVLETGEVVALKRIHIRNTGGIPDVVVREIKALQSVSHPNVVALLDVFPKGQAIYLVQEYCTTDLAALLRRLPAPPPERIAKGLMLQLCRGLEALHAEGIMHRDVKPSNTLLSAASGTAKLADCGLARPLDGGERPAYTHAVATRWYRAPELLYGARAYGPAVDVWALGLVFAELLGLSPLVPGDNDIDQLGRVIATFGSMEPVWLGVRALPDWGKIAFPHCEPLPLGDLLPGAPAAALEFLAAFLRYDPAKRITAACAVRSTYLTATQPL,not soluble
3,MPTLGFRFRAYTDEQTLRALKAQLKLACKIYNTLRWADIYFYQRDGKGLTQTELRQLALDLRKQDDEYKQLYSQVVQQIADRYYEARQRFFEGLARFPKEKKPHKYYSLVYPQYGWKILHVREIRKGSKKKLITLKLSNLGTFKVIVHRDFPLDKVKRVVVKLTRSERIYITFVVDHEFPKLPNTGKVVAIDVGVEKLLVTSDGEYFPNLRPYEKALWKVKHLHRELSRKKFLSNNWFKAKVKLARAYEYLKNLRTDLYMKLGKWFAEHYDVVVMEGIHAKQLVGKSLRSLRRRLSDVGFGELRGVLKYQLEKYGKKLILVNPAYTSKTCARCGYVKNDLSLSDRVFVCPNCGWIADRDYNASLNILRGSGSERPLVPVELRPLPVLWQGGAMKQEAPSFMRGLEHHHHHH,not soluble
4,MPTPRRSGRVIVYTGDGKGKTTAALGLALRAVGRGMNVAVLQFLKSPERTYGEQLALERLGVDVRQLGAGFTWTKTPDIHREALKRAWAVAKEYVYSGRYDMIVLDELNNVLAIDRFPVEDIVSVSEVLELIRTRPPSLHLVITGRAARPELMAAADIVTEMKLIKHDYEQGRTAMKGIEF,soluble
5,MPTVRLADGDLNYSLEGPAGAPVLLLSNSLGTDLGMWDTQIPALTAHFRVLRYDTRGHGASLVTPGPYAIGQLGADVLALLDALELPRVHFCGLSMGGLIGQWLGIHAGERLGRLVLCNTAAKIASDEVWNTRIDTVLKGGEQAMRDLRDASVARWFTAGFAEREPAQVERIVAMLAATSPQGYAANCAAVRDADFREQLGLVQAPTLIVAGSHDAVTTPDNARFMQARIADAQLVEFAAAHLSNVEAGDAFSRRLVDFLL,not soluble
6,MPVAVMADNAFSFRKLLDQCENQELEAPGGIATPPVYGQLLALYLLQNDMNNARYLWKRIPPAIKSANSELGGIWSVGQRIWQRDFPGIYTTINAHQWSETVQPIMEALRDATRRRAFALVSQAYTSIIADDFAAFVGLPVEEAVKGVLEQGWQADSTTRMVLPRKPAPGALDVSLNRFIPLSEPAPVPPIPNEQQLARLTDYVAFLEN,not soluble
7,MPVNNENLTSVLDARPFELSEEQKSPLFKANLLAELVHHYQCNEMYRKFCQKNKFDPLVFDGEVADIPPIPVHIFKAIGHKLSSVSDDTIKAKLQSSATSGVPSTILLDKVTARRQTRAMARVMQEVLGPKRRPFCIMDIDPTSPNATNLGARIAAVKGYLNFASTSKYFIDADSPSAPLEFLEQKFVEHLNSLASEEPLIIFGFTFVLYHTVFKTLKDKGISFQLPKGSQVIHIGGWKKLESEKVDKITFNRDIASVLGISPDDVVDIYGFTEQMGLNYPDCKAGWKHIHAYSDVIIRDESNLEVCGPGKVGLLEFVSPLPHSYPGNVVLTDDLGVIEESLCECGKAGKRFKVIGRAKKAEVRGCGDVMSEKLTKKPSYKPLSQQEERLTIYHSPIFLEHHHHHH,not soluble
8,MPWWEQNIGMGGGALSAKQQTSADSRTESLQSLSDERRDFIQKSLDAWCANLGYKDSTVNMLTLSRTLCISKDELSVFFDQYLKTTFRIWLGDIRFNAAKKMMLEFPDYSNDIISAECGFSARTYLYRIFKSKEGCTPTEWREEQVANAAPDDKKQD,not soluble
9,MPYKEKDIEKKYFSIGEVSAMFKVAPSLIRFWETEFDIFKPQKNRRGNRQFTKEDIENFRLIYNLVKERGYTLQGAKEMLKVDRHKSKDKMELLDSLQKVRDFLVDLKKQME,not soluble
10,MQALNSISSLQTSASLFPVSLNSDVSANTSTSSKELKAVIDQLVQALTQSGQLDETSPLGKMLAKAMAADGKSANSIDDITASLDKLIHEKLGDNFGASAGIGAGGGGGGIGGAGSGSGVGGGLSSDAGAGQSDLMSQVLNGLGKAVLDDLLTPSGEGGTTFSSDDMPTLEKVAQFMDDNKAQFPTRDGGSWMNELKEDNGLDAQETAQFRSALDVIGQQLGQQQGDASGVTSGGGLGSPVSDSSLGNPAIDANTGPAANGNASVDVGQLIGQLIDRGLQSVSSGGGLGTPVDNSTQPTGGTPAANPTGNVSNQDLGQLLSGLLQRGLEATLQDAGNTGADLQSSAAQVAAQLINALLQGTNNQTNQAVALEHHHHHH,soluble
11,MQANAIDFENYELLQDDVCARRIVAAKQKLGKRAIILAHHYQRADVYCHADLTGDSLKLSYLAARTDTEFLVFCGVHFMAEVADILSSSEQTVILPDLSAGCSMADMANLTKVERVWRELAEVLDPDERVTPVTYINSSADLKAFCGQHDGIVCTSSNAVKILQWAFSRREKVLFFPDQHLGRWSGYKMGLSPDEMPVWDFDEPMGGLTPEQIEKARILLWKGHCSVHQMFQPQHILRFRNQYPDGLVISHPECSFEVCKASDYVGSTEYIINTIRAAKSGTRWLVGTELNLVGRIAEEFKAEGKIIQFMSPMVCMCSTMARIDPQHLAWSLENLAEGRVVNQIRVPEPQASLAKLTLEKMLEVSKLEHHHHHH,not soluble
12,MQAWIQQGLHGMQMGGRVGNYDQTFVVYGPVFLPNATQSKISEINYGGKILLPSSALNLLMQYNIPMPMLFKLTNMAVQRVTHCGVLEFSAPEGQAILPLWMMQQLGLDDGDTIRIESATLPKATFAKLKPMSLEFLNITNPKAVLEVELRKYACLTKNDRIPTSYAGQTLEFLVVDLKPANSVCIIECDVNLDFDPPEGYVEQPRQVTPAVTAKPPAPDASAFIGAGQKAGGSGGTGQNATSVFGGAGRRLDGKKKPSSSVSLSDGTGVSTSNAAPVANDLPAIPPVVVNEDYKPGRVSFLRYDYKRVDVLEKELREKEASKAGQPSNVFRGGNRTLRGAR,not soluble
13,MQDDPSTSPLTHSATLRRLLYEALDALGLDPTRVYRSVYRRIPLPPPTLGGRLVHDNAPLFWTELAAVTGDADIGLHLGEAMKPRLLDVVGYLLLSARDLEEALRSFVRFQHILSGGFAARLEVEGETARLILDINYLGYASLRQQIECLMLLFLKLLALISDDEFVAERIEFRHRAPPRLGEHRRLFGRLPLFSRPHDALVFSAALLRRPSRNANPDMHDVLTRHAEEQSRELSENRLLNRVRYLIELRLGEGYGLRQCAAELGLGSGALQRALAAGGASFRQVRDEVRRQRASEMLLAGRAIREVAKACGFAELSPFYRAFRRWHAAPPEQYRARLAKREEGYSTSGT,not soluble
14,MQDEFYMARALKLAQRGRFTTHPNPNVGCVIVNNGDIVGEGYHHRAGEPHAEVHALRMAGAKAKGATAYVTLEPCSHHGRTPPCCDALIAAGVARVVAAMQDPNPQVAGRGLYRLQQAGIAVSHGLMMSEAEALNKGFLKRMRTGFPYLQLKLGASVDGRTAMASGESQWITSPQARRDVQRLRAQSHAILTSSATVLADDPALTVRWAELDASTQASYPQENLRQPVRIVIDSQNRVTPAHRIVQQPGETWIARTQEDSRAWPDAVRTISVPAHNGHLDLVVLMMQLGRQQINSIWVEAGPGLAGALLQAGLVDELIVYVAPKLLGTQARGLCELPGLEKLADAPQFTFSEIRHVGPDVCLHMVSA,soluble
15,MQDEKNFMSGVKENLDVLFTKLEKFLRTETVIGQPIKVGETTLIPIVTVMFGCGTGGGVGDNKGIKGQGGGLGTGARISPDAVLVIKNDDVQMLPVKKGANLSKLIEMVPEIVSKIKIDKENKEKEEVKKEENLEHHHHHH,soluble
16,MQDKYGVNHDHYCYESSDVLINLLNIRDPDELTQAEADFNLIRYSEYCSDLDELEDFDSNHFLNLHWVLFQDIYEWAGTIRDVDISKANTRFCTCSRVEPELNKAISRIPLIRFCRNKHELVALVADIFSDLNVVHPFREGNGRTTRFFFEELLHVAGYRIEWPVITKEEWVDANIHGYFGQLHKLEVIFDAAIIESLEHHHHHH,not soluble
17,MQDQVIICDLDNTIFDTSSIDPELFASLLHKATEYLSGSFTAEIILSIIQDIVSNPFDRVCEKYGLPKSMILPVLDELNGISLEHSAMVPYEDYAAFRAIPAYKILVTTGFKRLQEEKLRKLQIRQDFDRIIINDPVYANSSKLDIFRELSRELDLKDRKTYVVGDDPASEIKAGRELGFTTVLMVRKEYLSNSYTDYIISSFEGLRDLLRDNMENDYALRK,soluble
18,MQDTLPIHFAPLQGYTEAIYRNAHDAFFGGVDTYYTPFVRLEKGNFRRRDVRGIEPENNGVPHLIPQLIASSAEKAEVILSLFIEKGYQEVDINLGCPFPLLAKRHNGSGILPYPEEVKALLSIVTRYPQISFSVKMRLGWEQPDECLALAPILNDLPLRQITMHPRLGKQGYKGEVDLQGFSAFREVCQLPLVYNGDIHNLEDIQRISTQFPSLAGIMIGRGLLANPALALEYKENRTLAPDEMRDRLKSMHKSVYNNYDVLLEGGEGQLLTKMKTFWEYLAPQTDRKVLKAIHKSTNISKYYQAVSAFFNQR,not soluble
19,MQEESYYNLTVGDTHDRLHNFQITVDTDYRNFVQLVNTMRSPNIAQQDRAFLQLQQLGLQHPDYIRKARVPETMRQFAEGAAGKRRIRSCHGTYLHWYDEGLKVDMKSGEAGTCENWIIEDWNEKVVFRAVDPRGKYLRACLGSNQLTLVYIPEPTELWSPFENGNGTWSFLSSNGTWLSAHEDGQVCTVKDRQACEEFLLESW,not soluble
20,MQFLHILLLSILSLIFISSVQAVPSDQDIEALMGLQDQVNAFLGESNMSPEAKKKIEDMMAKKQAAIENSLGRK,soluble
21,MQFSCSIPLPATFRPGDILAFHRRDRQEIAERVNHASVQKAMIWCGAPAYLSISFEPGLAKASLVIDGKIAEDRQPIFEGMVRRMLGLTQEIEIFEERYRDHPQLGILIAQQPGLRVPVTATPFEALTWAVTGQQISVNAAVSLRRKLIGATNTPHSCGLFCYPDARRILELPEETLRQAGFSTTKTRTLLALSALVADNELPLDAWVETLPVDVIREKLEAVRGIGPWTVNYGLLRGFGWLDGSLHGDAAVRRGLQALLGAQDKISEENTKVWLAQFSPWRALVGAHLWAAPVAIALEHHHHHH,not soluble
22,MQGQHPPAELPSLRRQKILLLLERDGKVMAAELSRHFAVSEDTIRRDLAELDAGGLVQRVHGGALPRPKDSGKDYFTRVGETNEAKLRLAQYAVQWVQDGQTVLFDSGSTTLHIAQSLPAGISLTAVTASPMIAVALAEYPKVRVILAGGQLNPATLSASGHEALRMIQGIKADLMFTGVCAIHPEIGISSLHFDEVPIKQAMFDSASEVIAVTTADKLGAMEPFVVVPCNRLHRLVTEQEAPGVDIEGYRQLGIEVLQVLEHHHHHH,not soluble
23,MQIKLPKPFFFEEGKRAVLLLHGFTGNSSDVRQLGRFLQKKGYTSYAPQYEGHAAPPDEILKSSPFVWFKDALDGYDYLVEQGYDEIVVAGLSLGGDFALKLSLNRDVKGIVTMCAPMGGKTEGAIYEGFLEYARNFKKYEGKDQETIDNEMDHFKPTETLKELSEALDTIKEQVDEVLDPILVIQAENDNMIDPQSANYIYDHVDSDDKNIKWYSESGHVITIDKEKEQVFEDIYQFLESLDWSE,not soluble

# — the DeepSol protein solubility set
